Laboratory results from US20250215097A1 (BEIJING TIANNUOJIANCHENG PHARMA TECH, published 2025).
Positions count from the first letter of the chain named.

Key:
human CCR4 = target: T1, human CCR4 (human, UniProt P51679 1-360); assay: flow cytometry of purified Fab on cells stably expressing human CCR4
T1 construct: also called hCCR4; human CCR4+ cells
T1 sequence: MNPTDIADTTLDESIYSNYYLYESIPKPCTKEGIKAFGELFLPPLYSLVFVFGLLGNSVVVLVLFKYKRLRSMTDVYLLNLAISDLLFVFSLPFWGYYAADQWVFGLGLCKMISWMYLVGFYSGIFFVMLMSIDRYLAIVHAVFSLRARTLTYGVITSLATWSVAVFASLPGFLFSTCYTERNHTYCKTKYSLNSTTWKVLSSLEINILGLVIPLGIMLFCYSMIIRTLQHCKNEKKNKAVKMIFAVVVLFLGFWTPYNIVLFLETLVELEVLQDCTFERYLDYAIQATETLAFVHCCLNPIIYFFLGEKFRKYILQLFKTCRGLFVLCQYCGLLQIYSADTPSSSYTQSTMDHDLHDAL
Experimental: (§1) The positive clones obtained in example 1 were re-induced to express and purified to obtain a Fab antibody. The binding to cells stably expressing human CCR8, cynomolgus monkey CCR8 and human CCR4 was tested respectively, 5×10⁴ test cells were added to each well of a 96-well U-shaped plate and centrifuged to discard the supernatant, 100 μL/well of the purified Fab antibody was added and the mixture was incubated on ice for 60 minutes. After washing away the unbound primary antibody, 50 μL of a secondary antibody solution (Anti-human IgG, F(ab′)2-AF647, Jackson Immuno Research) was added to each well and the mixture was incubated on ice for 30 minutes. After washing, 50 μL of a PI/BSA solution at 5 μg/mL was added to each well and the mixture was incubated on ice for 5 minutes. Then excess secondary antibody was washed away with 0.5% BSA, the cells were resuspended by adding a PBS solution, and binding of the antibody to the cells was detected using a flow cytometer (Intellicyte iQue).

cynomolgus monkey CCR8 [1] = target: T2, cynomolgus monkey CCR8 (cynomolgus monkey, UniProt O97665 1-356 (rhesus entry)); assay: flow cytometry of purified Fab on cells stably expressing cynomolgus monkey CCR8
T2 construct: Full-length, stably expressed on CHO cells; also called cynoCCR8; CHO-cynoCCR8
T2 sequence (O97665 other isoform, or with tags, fused parts or gaps): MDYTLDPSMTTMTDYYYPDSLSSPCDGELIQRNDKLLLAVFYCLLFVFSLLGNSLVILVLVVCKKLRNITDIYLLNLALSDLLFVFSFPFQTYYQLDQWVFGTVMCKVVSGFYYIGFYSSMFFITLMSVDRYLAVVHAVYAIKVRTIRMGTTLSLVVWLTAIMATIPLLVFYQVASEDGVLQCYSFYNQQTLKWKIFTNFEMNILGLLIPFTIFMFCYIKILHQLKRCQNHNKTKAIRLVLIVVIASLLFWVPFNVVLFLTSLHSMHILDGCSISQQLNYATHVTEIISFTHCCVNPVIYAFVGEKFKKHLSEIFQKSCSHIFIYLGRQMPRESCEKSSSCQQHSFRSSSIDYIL
Experimental: as §1

cynomolgus monkey CCR8 [2] = target: T2, cynomolgus monkey CCR8; assay: flow cytometry on CHO-cynoCCR8 cells, parental chimeric antibody
Experimental: (§2) 5×10⁴ CHO-hCCR8 or CHO-cynoCCR8 cells were added per well in a 96-well U-shaped plate and centrifuged to discard the supernatant. 100 μL of a gradiently diluted anti-CCR8 chimeric antibody was added per well and the mixture was incubated on ice for 60 minutes. After the unbound primary antibody was washed away, 50 μL, of a secondary antibody AlexaFluro647 anti-human IgG (Jackson Immuno Research #109-606-170) was added per well and the mixture was incubated on ice for 30 minutes. After the washing, 50 μL of 5 μg/mL of a Pi/BSA solution was added to each well and the mixture was incubated on ice for 5 minutes. Then excess secondary antibody was washed away with 0.5% BSA, the cells were resuspended by adding a PBS solution, and binding of the antibody to the cells was detected using a flow cytometer (BD Celesta). The fluorescence value of a PI-negative cell population was analyzed. Cell-binding curves were fitted by Graphpad Prism 7.

human CCR8 [3] = target: T3, human CCR8 (human, UniProt P51685 1-355); assay: cell-based or functional assay
T3 sequence (P51685 whole entry): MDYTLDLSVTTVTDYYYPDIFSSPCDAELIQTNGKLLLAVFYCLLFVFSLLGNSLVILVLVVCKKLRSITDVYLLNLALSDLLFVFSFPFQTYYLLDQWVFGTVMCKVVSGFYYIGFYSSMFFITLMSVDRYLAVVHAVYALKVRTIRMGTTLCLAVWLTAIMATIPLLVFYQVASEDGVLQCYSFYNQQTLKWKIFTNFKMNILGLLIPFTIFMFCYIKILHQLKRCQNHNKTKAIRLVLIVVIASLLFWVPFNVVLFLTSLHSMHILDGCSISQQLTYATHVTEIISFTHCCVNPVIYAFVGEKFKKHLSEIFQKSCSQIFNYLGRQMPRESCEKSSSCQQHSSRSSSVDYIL

human CCR8 [4] = target: T3, human CCR8; assay: flow cytometry on CHO-hCCR8 cells, parental chimeric antibody
Experimental: as §2

human CCR8 [5] = target: T3, human CCR8; assay: flow cytometry, chimeric IgG on CHO-hCCR8 cells
Experimental: (§3) 5×10⁴ CHO-hCCR8 or CHO-cynoCCR8 cells were added per well in a 96-well U-shaped plate and centrifuged to discard the supernatant, 100 μL of a gradiently diluted anti-CCR8 chimeric antibody or anti-KLH isotype control antibody was added per well and the mixture was incubated on ice for 60 minutes. After the unbound primary antibody was washed away, 50 μL of a secondary antibody AlexaFluro647 anti-human IgG (Jackson Immuno Research #109-606-170) was added per well and the mixture was incubated on ice for 30 minutes. After the washing, 50 μL of 5 μg/mL of a PI/BSA solution was added to each well and the mixture was incubated on ice for 5 minutes. Then excess secondary antibody was washed away with 0.5% BSA, the cells were resuspended by adding a PBS solution, and binding of the antibody to the cells was detected using a flow cytometer (Intellicyte iQue). The fluorescence value of a Pi-negative cell population was analyzed. Cell-binding curves were fitted by Graphpad Prism 7 (FIG. 2). The chimeric antibodies of 87D8, 102H5, 109F6, 110G2, 113B3, 139A9, 144D2, etc. all bound with high affinities to human CCR8+ cells CHO-hCCR8 and cynomolgus monkey CCR8+ cells CHO-cynoCCR8.

human CCR8 [6] = target: T3, human CCR8; assay: cell-based or functional assay; remark: listed apart in the source
human CCR8 [7] = target: T3, human CCR8; assay: cell-based or functional assay; remark: listed apart in the source
cynomolgus monkey CCR8 [8] = target: T2, cynomolgus monkey CCR8; assay: flow cytometry, chimeric IgG on CHO-cynoCCR8 cells
Experimental: as §3

rabbit CCR8 = target: T4, rabbit CCR8 (rabbit); assay: flow cytometry on HEK293-rabbit CCR8 cells
T4 construct: Transiently expressed on HEK293 cells; also called HEK293-rabbit CCR8 cells; rabbit CCR8+ cells
T4 chain: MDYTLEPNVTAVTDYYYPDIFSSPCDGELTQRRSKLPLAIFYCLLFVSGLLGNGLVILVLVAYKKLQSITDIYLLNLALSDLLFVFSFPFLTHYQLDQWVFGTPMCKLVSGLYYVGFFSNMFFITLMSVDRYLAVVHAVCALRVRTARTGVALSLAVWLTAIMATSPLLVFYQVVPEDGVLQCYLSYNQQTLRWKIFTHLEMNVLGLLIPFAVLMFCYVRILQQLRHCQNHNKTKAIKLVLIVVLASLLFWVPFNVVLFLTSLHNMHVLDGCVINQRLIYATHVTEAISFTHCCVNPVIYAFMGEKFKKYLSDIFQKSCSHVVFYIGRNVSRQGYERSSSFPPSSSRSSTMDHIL
Experimental: A lentiviral vector plasmid containing rabbit CCR8 was constructed by using a rabbit CCR8 cDNA (biosynthesized by GENEWIZ, Suzhou and having the amino acid sequence shown in SEQ ID NO. 112) as a template. The lentiviral vector plasmid containing rabbit CCR8 was transfected into HEK293 cells (hereinafter referred to HEK293-rabbit CCR8 cells) by using PEI MAX® (Polysciences 9002-98-6) as a transfection reagent referring to instructions of a transfection reagent. 24 hours after the transfection, 5×10⁴ HEK293-rabbit CCR8 cells were added per well in a 96-well U-shaped plate and centrifuged to discard the supernatant. 100 μL of a gradiently diluted h87D8 H2K4 e5 or anti-KLH isotype control antibody was added per well and the mixture was incubated on ice for 60 minutes. After the unbound primary antibody was washed away, 50 μL of a secondary antibody AlexaFluro647 anti-human IgG (Jackson Immuno Research #109-606-170) was added per well and the mixture was incubated on ice for 30 minutes. After the washing. […] Then excess secondary antibody was washed away with 0.5% BSA, the cells were resuspended by adding a PBS solution, and binding of the antibody to the cells was detected using a flow cytometer (Intellicyte iQue). The fluorescence value of a PI-negative cell population was analyzed. […]

FcγRIIIAF158 = target: T5, FcγRIIIAF158 (UniProt P08637 17-208); assay: SPR (Biacore T200), antibody captured by anti-human IgG F(ab')2 on CM5, FcγRIIIA as analyte; FcγRIIIAF158
T5 construct: F158 allotype; also called FcγRIIIA158F
T5 sequence (P08637 17-208 limits assumed): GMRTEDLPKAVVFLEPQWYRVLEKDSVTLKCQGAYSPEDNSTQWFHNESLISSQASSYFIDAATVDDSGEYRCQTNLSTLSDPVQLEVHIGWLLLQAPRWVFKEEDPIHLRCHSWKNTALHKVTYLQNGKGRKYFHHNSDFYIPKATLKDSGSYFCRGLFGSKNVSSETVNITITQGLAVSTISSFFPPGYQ
Experimental: (§4) The affinities of the Fc function-enhanced humanized CCR8 antibodies to FcγRIIIAV158 and FcγRIIIAF158 were detected by using a surface plasmon resonance technology (SPR/Biacore T200). A coupling reagent Amine Coupling Kit (GE Healthcare BR-1000-50) was used to couple Goat Anti-Human IgG F(ab′)2 to the surface of a CM5 chip. h87D8 H2K4 e5 or h87D8 H2K4 was captured through high-affinity binding with the antibodies and then gradiently diluted FcγRIIIAV158 or FcγRIIIAF158 was injected in sequence. The binding time was set to be 120 seconds, the dissociation time was set to be 200 seconds, regeneration was performed for 30 seconds by 10 mM Glycine-HCl with the pH value of 1.75, and the flow rate was set to be […]. The measured data were fitted to obtain an equilibrium dissociation constant. The affinities of h87D8 H2K4 e5 or h87D8 H2K4 to FcγRIIIAV158 and FcγRIIIAF158 were respectively measured. […] The binding of h87D8 H2K4 e5 to FcγRIIIAV158 and FcγRIIIAF158 was stronger than that of h87D8 H2K4.

FcγRIIIAV158 = target: T6, FcγRIIIAV158 (UniProt P08637 17-208); assay: SPR (Biacore T200), antibody captured by anti-human IgG F(ab')2 on CM5, FcγRIIIA as analyte; FcγRIIIAV158
T6 construct: V158 allotype; also called FcγRIIIA158V
T6 sequence (P08637 17-208 F176V limits assumed): as the sequence (P08637 17-208 limits assumed) above, with F160V counted along it
Experimental: as §4

human CCR8 [9] = target: T3, human CCR8; assay: flow cytometry on CHO-hCCR8 cells
Experimental: as §2

cynomolgus monkey CCR8 [10] = target: T2, cynomolgus monkey CCR8; assay: flow cytometry on CHO-cynoCCR8 cells
Experimental: as §2

B1: 30A7 Fab antibody (Fab, V domains shown)
VH: QVQLVESGGGLVQPKGSLKLSCAASGFTFNTYAMNWVRQAPGKGLEWVARIRSKSNYYATYYADSVKDRFTISRDDSQSMLYLQMNNLKTEDTAMYYCLRGKEAGAYYAMDYWGQGTSVTVSS
VL: DIVMTQAAPSVPVTPGESVSISCRSSKSLLHSNGNTYLYWFLQRPGQSPQLLIYRMSNLASGVPDRFSGSGSGTAFTLRISRVEAEDVGVYYCMQHLEYPFTFGAGTKLEIK
notes: also called clone 30A7
B1: no binding (human CCR4); binds (cynomolgus monkey CCR8 [1]).

B2: 87D8 anti-CCR8 chimeric antibody (antibody, V domains shown)
VH: B1 VH with Q1E, K19R, V48I, Y57N, L99V
VL: B1 VL with F101L, I111L
With B2 the EC50 (cynomolgus monkey CCR8 [2]) was 1.78 nM, the “ADCC EC50 (nM), PBMC FcγRIIIA158F/F effectors, HEK293-hCCR8 targets” value (human CCR8 [3]) was 0.08 nM and the “ADCC EC50 (nM), PBMC FcγRIIIA158V/V effectors, HEK293-hCCR8 targets” value (human CCR8 [3]) was 0.05 nM. The “ADCC maximal lysis rate, PBMC FcγRIIIA158F/F effectors, HEK293-hCCR8 targets” value (human CCR8 [3]) was 68%, the “ADCC maximal lysis rate, PBMC FcγRIIIA158V/V effectors, HEK293-hCCR8 targets” value (human CCR8 [3]) was 76% and the EC50 (human CCR8 [4]) was 0.57 nM. For the same binder, the EC50 (human CCR8 [5]) was 0.71 nM, the “ADCC maximal lysis rate, NK92-CD16A effectors, HEK293-hCCR8 targets” value (human CCR8 [6]) was 33% and the “ADCC EC50 (nM), NK92-CD16A effectors, HEK293-hCCR8 targets, LDH release” value (human CCR8 [7]) was 0.1 nM. The EC50 (cynomolgus monkey CCR8 [8]) was 1.92 nM.

B3: h87D8 H2K4 hIgG1 e5 (antibody)
heavy: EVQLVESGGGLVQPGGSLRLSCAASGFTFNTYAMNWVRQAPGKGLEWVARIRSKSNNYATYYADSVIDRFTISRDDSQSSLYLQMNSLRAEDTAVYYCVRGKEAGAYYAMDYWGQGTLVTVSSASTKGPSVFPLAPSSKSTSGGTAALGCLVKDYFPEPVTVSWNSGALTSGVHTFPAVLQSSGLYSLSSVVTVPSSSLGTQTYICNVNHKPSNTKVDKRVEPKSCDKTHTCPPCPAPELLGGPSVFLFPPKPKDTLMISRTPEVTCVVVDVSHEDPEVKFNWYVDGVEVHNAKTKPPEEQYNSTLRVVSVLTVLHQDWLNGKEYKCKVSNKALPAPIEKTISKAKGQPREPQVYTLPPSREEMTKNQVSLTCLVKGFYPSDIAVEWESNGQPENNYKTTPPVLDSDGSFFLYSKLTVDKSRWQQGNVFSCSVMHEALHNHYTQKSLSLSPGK
light: DIVMTQSPLSLPVTPGEPASISCRSSKSLLHSNYNTYLYWFLQKPGQSPQLLIYRTSNLASGVPDRFSGSGSGTDFTLKISRVEAEDVGVYYCMQHLEYPLTFGQGTKLEIKRTVAAPSVFIFPPSDEQLKSGTASVVCLLNNFYPREAKVQWKVDNALQSGNSQESVTEQDSKDSTYSLSSTLTLSKADYEKHKVYACEVTHQGLSSPVTKSFNRGEC
notes: also called h87D8 H2K4 e5; h87D8H2K4e5; copies: 2 + 2
With B3 the EC50 (rabbit CCR8) was 0.21 nM, the Kd (FcγRIIIAF158) was 433 nM and the “ADCC EC50 (nM), PBMC FcγRIIIA158F/F effectors, HEK293-hCCR8 targets” value (human CCR8 [3]) was 0.02 nM. The “ADCC EC50 (nM), PBMC FcγRIIIA158V/V effectors, HEK293-hCCR8 targets” value (human CCR8 [3]) was 0.01 nM, the “ADCC maximal lysis rate, PBMC FcγRIIIA158F/F effectors, HEK293-hCCR8 targets” value (human CCR8 [3]) was 77% and the “ADCC maximal lysis rate, PBMC FcγRIIIA158V/V effectors, HEK293-hCCR8 targets” value (human CCR8 [3]) was 75%. The Kd (FcγRIIIAV158) was 270 nM, the “ADCC half-maximal effective concentration EC50, NK92-CD16A effectors, HuT78 targets” value (human CCR8 [6]) was 0.53 nM and the “ADCC maximal lysis rate, NK92-CD16A effectors, HEK293-hCCR8 targets” value (human CCR8 [6]) was 61%. For the same binder, the “half-maximal effective concentration EC50 of inhibition of the Ca2+ current signal, CHO-hCCR8 cells, CCL1 stimulus” value (human CCR8 [6]) was 5.2 nM.

B4: h87D8 H2K4 hIgG1 (antibody)
heavy: not shown
light: B3 light
notes: Humanized, wild-type human IgG1 Fc; also called h87D8 VHv2+h87D8 VKv4; copies: 2 + 2
Work on B4 yielded a Kd (FcγRIIIAF158) of 1300 nM, a Kd (FcγRIIIAV158) of 861 nM and an EC50 (human CCR8 [9]) of 0.68 nM. It also gave an EC50 (cynomolgus monkey CCR8 [10]) of 2.28 nM.
